Measurements reported in PMC5253704.
pKd: −log10 of the molar value.

Legend:
Assay in all cases: ELISA; one protein (25 nM) or two proteins together (12.5 nM each) coated on wells 16 h at 4 °C in buffer A (20 mM Tris-HCl, 150 mM NaCl, 1 mM ZnCl2, 1 mM CaCl2, 1 mM MgCl2, pH 7.4); soluble protein at 50 to 0.78 nM; detected with antibody and HRP secondary; calculated KD
[1] = biological target: recombinant murine α3(V)-NTD (N-terminal non-triple helical domain of the α3(V) collagen chain) (murine)
[2] = biological target: GPC1+FGF2 combined (co-adsorbed on the well) (UniProt P35052)
recombinant FGF2 = recombinant FGF2 (UniProt P09038)
[3] = biological target: recombinant glypican-1 (R&D Systems) (UniProt P35052)

Chain of recombinant FGF2 (P09038 143-288): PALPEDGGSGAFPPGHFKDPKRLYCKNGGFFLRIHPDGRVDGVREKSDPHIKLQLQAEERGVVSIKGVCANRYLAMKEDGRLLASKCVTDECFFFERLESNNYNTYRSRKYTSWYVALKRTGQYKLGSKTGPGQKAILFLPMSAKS

| Substance | pKd [1] | pKd [2] | pKd (recombinant FGF2) | pKd [3] |
| --- | --- | --- | --- | --- |
| recombinant FGF2 (from UniProt P09038 143-288) (ligand) | 7.44 | – | – | – |
| recombinant glypican-1 (R&D Systems) (from UniProt P35052 24-530) (natural protein) | 7.47 | – | – | – |
| recombinant murine α3(V)-NTD (N-terminal non-triple helical domain of the α3(V) collagen chain) (domain or fragment) | – | 7.80 | 7.46 | 7.48 |
